Literature values, collected in article PMC4437577.

Molecular target: PR-B (Homo sapiens) (UniProt P06401)
Experiment: analytical ultracentrifugation

For PR-B (from UniProt P06401), the Kd is listed as 8.8 µM.
